Experimental data: IntAct's records for PubMed 17053789

B1: Protection of telomeres protein 1 (Mus musculus), Q91WC1 (parent)
chain: MSLVSTAPYTYTPLNLLKEGTIANVYGVVKFFKPPYVSKGTDYCSVVTIVDQTNVKLTCMLFSGNYEALPIIYKVGDIVRFHRLKIQVYKNELQGINCSGFASLTFEGTVGMPVTARTSSKVFSFTPQDQKMVEALRVWASKHISASSTLVQLCDAQPMQYYDLTCQLLGKAQVDSTAFLLKVWDGTQTVLPSWRVSTQDLTFEGDLSHIERLQSLVVDILVYDNHVQVARSIEVGCFLRLYSLHTKLQPGNSETSSSESLRLEFHLHGGTSYGRGIRVLPDTSPCVDQLKKALEGANLPVTETSTGICQSENGDSSALSNSGSGAVSPYEEERCQQVSATILTNHQHLEKTPLCAILTQKAPQQYRVRAKLRSYLPRRLSQSVKLLCPKCHSVQEVPHGDSLDKILQDAATEAPDIKLKATSLYYSKVWTTEDQGGRQVAVHFVKNNGILPASSECLILIEGGRLCEVSKLSSKFHSVMPVRSGPESLELLTLSAPFLIQGKVHHYGCKQCSSLKPIQNLNSRFHKGPWTPSSVAEALGVVPLQYVFVMVFTLDDGTGVLEAYLKDSEHFFKIPASEVLTDDDLQRSLETIMDMICPPGIKVDAYPWLECLLKSYNVTIGTERRICYQIFDTTVAENVV
partner: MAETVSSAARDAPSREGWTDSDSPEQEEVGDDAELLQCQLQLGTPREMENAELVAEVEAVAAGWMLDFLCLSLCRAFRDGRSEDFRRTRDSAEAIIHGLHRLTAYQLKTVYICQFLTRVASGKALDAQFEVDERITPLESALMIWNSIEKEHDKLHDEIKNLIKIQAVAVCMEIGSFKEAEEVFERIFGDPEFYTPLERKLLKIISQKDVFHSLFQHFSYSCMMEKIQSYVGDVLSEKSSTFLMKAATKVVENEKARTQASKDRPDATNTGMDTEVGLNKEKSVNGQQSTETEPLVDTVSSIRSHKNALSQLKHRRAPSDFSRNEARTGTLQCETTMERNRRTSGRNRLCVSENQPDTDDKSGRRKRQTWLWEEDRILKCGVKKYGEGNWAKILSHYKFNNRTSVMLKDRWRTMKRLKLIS

Variants of: B1
Settings: with terf1_mouse Terf1, P70371

Row | effect of a mutation on the interaction | Variant
1 | disrupting interaction | Y223A
